From US20100138945A1 (FEMTA PHARMACEUTICALS, published 2010)
Numbering of substitutions follows the chain as printed.

B1: Anti-IL-6 Ab BA802 (antibody, V domains shown)
VH: QVQLVQSGAEVKKPGASVKVSCKASGFTFSSFAMSWIRQSPSRGLEWLGEISSGGSYTYYPDTVTGRFTISRDNAKNSLYLQMNSLRAEDTAVYYCARGLWGYYALDYWGQG
VL: EIVLTQSPDFQSVTPKEKVTITCSASSSVSYMYWYLQKPGQSPQLLIYDTSNLASGVPSRFSGSGSGTDFTLTISSLQPEDFATYYCQQWSGYPYTFGQG
notes: Humanized monoclonal antibody
B2: Anti-IL-6 Ab BA840 (antibody, V domains shown)
VH: B1 VH with S40P, S42G, R43K, L48I
VL: EIVLTQSPDFQSVTPKEKVTITCSASSSVSYMYWYLQKPGQSPQLLIYDTSNLASGIPPRFSGSGYGTDFTLTINNIESEDAAYYFCQQWSGYPYTFGQG
notes: Humanized monoclonal antibody
B3: Anti-IL-6 Ab BA808 (antibody, V domains shown)
VH: B1 VH
VL: B2 VL with D9A, F10T, Q11L, T14S, K16G, K18R, V19A, I21L, T22S
notes: Humanized monoclonal antibody
B4: Anti-IL-6 Ab BA890 (antibody, V domains shown)
VH: B1 VH with S40P, S42G, R43K, L48I
VL: AIQLTQSPSSLSASVGDRVTITCSASSSVSYMYWYQQKPGQAPRLLIYDTSNLASGIPPRFSGSGYGTDFTLTINNIESEDAAYYFCQQWSGYPYTFGQG
notes: Humanized monoclonal antibody
B5: Anti-IL-6 Ab BA939 (antibody, V domains shown)
VH: B1 VH with I37V, S40A, S42G, R43Q, L48M
VL: B4 VL with A1D, L4M
notes: Humanized monoclonal antibody
B6: Anti-IL-6 Ab BA848 (antibody, V domains shown)
VH: B1 VH with Q1E, I37V, S40A, S42G, R43Q, L48M
VL: B4 VL
notes: Humanized monoclonal antibody
B7: Clone BA399-05 (antibody, V domains shown)
VH: B1 VH with V64K, L100Q
VL: B4 VL with S24Y, Q89D
notes: also called BA399-5
B8: Clone BA399-09 (antibody, V domains shown)
VH: B1 VH with A33S, T58H, L100Q
VL: B4 VL with S24Y, S51L
notes: also called BA399-9; BA399 clone #9
B9: BA399_CPS_10 (antibody, V domains shown)
VH: B1 VH with G26H, A33S, T58H, L100Q
VL: B4 VL with S24Y, S51L
notes: also called Clone BA399-10; BA399_10
B10: Clone BA399-02 (antibody, V domains shown)
VH: B1 VH with A33S, V64K, L100Q
VL: B4 VL with S24Y
notes: also called BA399-2; BA399 clone #2
B11: BA399_CPS_03 (antibody, V domains shown)
VH: B1 VH with G26H, T58H, L100Q
VL: B4 VL with S51L
notes: also called Clone BA399-03; BA399_03
B12: BA399_CPS_04 (antibody, V domains shown)
VH: B1 VH with A33S, L100Q
VL: B4 VL with Q89D
notes: also called Clone BA399-04; BA399_04
B13: BA399_CPS_01 (antibody, V domains shown)
VH: B1 VH with L100Q
VL: B4 VL with Q89D
notes: also called Clone BA399-01; BA399_01
B14: BA399_CPS_06 (antibody, V domains shown)
VH: B1 VH with A33S, T58H, L100Q
VL: B4 VL with S24Y, S51L, Q89D
notes: also called Clone BA399-06; BA399_06

What follows are molecules tested against T1, human IL-6 (Interleukin-6) (human, UniProt P05231 30-212) (assay: Biacore (SPR), antibody captured on anti-human Fc, IL-6 as analyte).
T1 construct: also called 001 IL-6 antigen

Kd | koff | kon | Molecule
39.6 pM | 5.88e-05 s⁻¹ | 1.48e+06 M⁻¹ s⁻¹ | B1
236 pM | 0.000237 s⁻¹ | 1.01e+06 M⁻¹ s⁻¹ | B2
50.5 pM | 6.59e-05 s⁻¹ | 1.31e+06 M⁻¹ s⁻¹ | B3
86.5 pM | 6.44e-05 s⁻¹ | 745000 M⁻¹ s⁻¹ | B4
40 pM | 5.76e-05 s⁻¹ | 1.44e+06 M⁻¹ s⁻¹ | B5
127 pM | 0.000158 s⁻¹ | 1.25e+06 M⁻¹ s⁻¹ | B6

What follows are molecules tested against T1, human IL-6 (Interleukin-6) (assay: Sapidyne KinExA kinetic exclusion assay on IL-6; Kd Range (95% Confidence Interval) printed: 5.66pM to 3.28pM).
Target sequence in this assay (P05231 30-212 limits assumed): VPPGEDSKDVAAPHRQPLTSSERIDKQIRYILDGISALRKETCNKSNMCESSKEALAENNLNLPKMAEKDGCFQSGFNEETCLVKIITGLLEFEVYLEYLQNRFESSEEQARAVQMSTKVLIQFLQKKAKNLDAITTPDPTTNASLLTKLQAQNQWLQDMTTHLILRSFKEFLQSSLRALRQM

Kd | Molecule
4.37 pM | Anti-IL-6 Mab BA003 (CNTO136) (antibody)

Biological target: T1, human IL-6 (Interleukin-6)
Assay: Biacore (SPR), antibody captured on anti-human Fc, IL-6 as analyte
Remark: another data set of the same source

Ka | Kd | koff | kon | Molecule
3.52e+10 M⁻¹ | 28.4 pM | 2.86e-05 s⁻¹ | 1.01e+06 M⁻¹ s⁻¹ | B7
1.28e+13 M⁻¹ | 0.0783 pM | 5.07e-08 s⁻¹ | 648000 M⁻¹ s⁻¹ | B8
3.52e+12 M⁻¹ | 0.284 pM | 1.82e-07 s⁻¹ | 643000 M⁻¹ s⁻¹ | B9
8.14e+13 M⁻¹ | 0.0123 pM | 9.11e-09 s⁻¹ | 742000 M⁻¹ s⁻¹ | B10

Each molecule was assayed against T1, human IL-6 (Interleukin-6) (assay: specific activity: affinity ELISA on IL-6 divided by quantitation ELISA, normalized to BA399 = 1).
Protocol: 200 μl washing solution (0.05% Tween-20 in PBS) was added and shaken at 200 RPM for 5 min at room temperature. The plates were emptied and residual liquid tapped out on paper towels. 200 μl blocking solution (2% Carnation milk in PBS) was added and shaken at 200 RPM for one hour at room temperature. Plates were emptied and residual liquid tapped out on paper towels. 100 μl of diluted samples for ELISA was used. The samples were shaken at 200 RPM for one hour at room temperature; plates emptied and residual liquid tapped out on paper towels. 200 μl washing solution (0.05% Tween-20 in PBS) was added, shaken at 200 RPM for 5 min at room temperature; plates emptied and residual liquid tapped out on paper towels. This process was repeated three times. 100 μl of 1:2500 dilution of anti-human IgG conjugated with HRP diluted in block solution (2% Carnation milk in PBS) was added for 001 samples. 100 μl of 1:2500 dilution of anti-rabbit IgG conjugated with HRP diluted in block solution (2% Carnation milk in PBS) was added for control antibody. The contents were shaken at 200 RPM for one hour at room temperature, plates emptied and residue liquid tapped out on paper towels. 200 μl washing solution (0.05% Tween-20 in PBS) was added, shaken at 200 RPM for 5 min at room temperature; plates emptied and residual liquid tapped out on paper towels. This process was repeated three times. 100 μl TMB substrate solution was added, and incubated at room temperature. The reaction was stopped with 1 N HCl, and the plate read at 450 nm.
This ELISA was used for determining the expression level of antibodies in cell culture supernatant. […] Covered with plate sealer and incubated at 4° C. overnight. Emptied plate and tapped out residual liquid on paper towels. Added 200 μl washing solution (0.05% Tween-20 in PBS). Shaken at 200 RPM for 5 min at room temperature. Emptied plate and tapped out residual liquid on paper towels. Added 200 μl blocking solution (2% Carnation milk in PBS). Shaken at 200 RPM for one hour at room temperature. Emptied plate and tapped out residual liquid on paper towels. Used 100 μl of diluted sample for ELISA. 20 ng/ml of human IgG and 1:2 dilution thereafter was used for standards.

binding result | Molecule
binds | B11
binds | B12
binds | B13
binds | B14
